Tests used:
[1] = target: Transferrin Receptor 1 (TfR1/CD71) on human colorectal cancer cells (HT29: high expression); LOVO: low … (human (endogenous in HT29 and LOVO), UniProt P02786 1-760); experiment: cell-based or functional assay
[2] = target: T1, Recombinant human TfR1-Fc protein (TFR-H5264, Acro Biosystems) (human, UniProt P02786 101-760); experiment: SPR; Biacore 8K; recombinant human TfR1-Fc immobilized on the sensor chip; TR01 at 62.5–1,000 nM; as printed: 'acidic conditions (pH 2.0) using a running buffer containing TfR1 at 30 μg/mL'; global fit of association and dissociation curves; conditions: both partners purified
T1 construct: Transferrin receptor 1 (TfR1/CD71), human; As recalled, the supplier's TfR1 constructs hold the extracellular part (about Cys89-Phe760); source: bought: Acro Biosystems
T1 sequence (P02786 101-760): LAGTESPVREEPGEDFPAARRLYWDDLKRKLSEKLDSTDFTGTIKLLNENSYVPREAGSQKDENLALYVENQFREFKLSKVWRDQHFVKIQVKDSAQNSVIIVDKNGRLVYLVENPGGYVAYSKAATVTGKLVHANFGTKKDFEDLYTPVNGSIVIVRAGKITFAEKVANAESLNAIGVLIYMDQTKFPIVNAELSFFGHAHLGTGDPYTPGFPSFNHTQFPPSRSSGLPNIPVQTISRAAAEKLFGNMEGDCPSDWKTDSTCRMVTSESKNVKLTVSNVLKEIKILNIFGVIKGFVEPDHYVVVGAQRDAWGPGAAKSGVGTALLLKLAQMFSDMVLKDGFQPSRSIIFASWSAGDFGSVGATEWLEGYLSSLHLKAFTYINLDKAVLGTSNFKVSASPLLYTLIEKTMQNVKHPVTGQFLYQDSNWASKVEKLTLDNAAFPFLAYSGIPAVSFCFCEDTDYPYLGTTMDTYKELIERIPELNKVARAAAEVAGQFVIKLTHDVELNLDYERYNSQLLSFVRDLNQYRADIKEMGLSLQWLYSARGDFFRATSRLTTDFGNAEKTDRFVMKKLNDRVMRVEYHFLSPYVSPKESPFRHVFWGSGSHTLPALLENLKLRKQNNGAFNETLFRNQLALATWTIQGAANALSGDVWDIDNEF

Transferrin Receptor 1 (TfR1/CD71) on human colorectal cancer cells (HT29: high expression); LOVO: low …, sequence (P02786 whole entry): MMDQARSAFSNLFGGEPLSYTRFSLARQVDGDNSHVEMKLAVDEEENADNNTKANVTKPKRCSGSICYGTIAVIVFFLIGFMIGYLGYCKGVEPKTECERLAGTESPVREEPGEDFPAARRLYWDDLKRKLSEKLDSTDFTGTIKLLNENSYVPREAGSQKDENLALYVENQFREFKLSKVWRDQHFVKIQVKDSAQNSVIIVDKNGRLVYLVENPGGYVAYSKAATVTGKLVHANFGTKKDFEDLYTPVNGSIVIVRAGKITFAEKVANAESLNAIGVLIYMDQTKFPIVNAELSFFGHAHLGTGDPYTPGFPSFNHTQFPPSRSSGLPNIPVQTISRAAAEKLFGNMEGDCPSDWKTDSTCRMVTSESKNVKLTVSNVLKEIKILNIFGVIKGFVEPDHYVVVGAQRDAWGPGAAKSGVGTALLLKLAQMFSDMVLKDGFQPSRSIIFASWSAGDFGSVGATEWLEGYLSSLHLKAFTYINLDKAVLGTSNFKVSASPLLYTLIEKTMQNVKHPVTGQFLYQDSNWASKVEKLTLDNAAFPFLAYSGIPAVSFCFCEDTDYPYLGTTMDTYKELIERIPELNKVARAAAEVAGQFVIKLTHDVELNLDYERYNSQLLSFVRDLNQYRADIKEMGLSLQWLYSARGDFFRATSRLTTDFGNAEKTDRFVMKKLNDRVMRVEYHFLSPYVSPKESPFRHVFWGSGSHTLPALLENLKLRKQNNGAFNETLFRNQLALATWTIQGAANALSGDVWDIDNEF

| Binder | biodistribution: tumor-to-muscle (T/M) ratio in HT29 tumor-bearing mice, 30 to 120 min postinjection (3.73, 5.10, 9.18) [1] | biodistribution: tumor-to-muscle (T/M) ratio in LOVO-bearing mice (low TfR1), 30 to 120 min postinjection (2.30, 3.16, 5.01) [1] | tumor-to-muscle (T/M) ratio in HT29 xenografts by micro-PET/CT with coinjection of excess unlabeled NOTA-TR01, 30 to 120 min (0.47, 0.45, 0.86) [1] | tumor-to-muscle (T/M) ratio in HT29 xenografts by micro-PET/CT, 30 to 120 min postinjection (2.79, 3.98, 7.88) [1] | tumor-to-muscle (T/M) ratio in LOVO xenografts (low TfR1) by micro-PET/CT, 30 to 120 min postinjection (1.65, 2.30, 2.94) [1] | Kd [2] | koff [2] | kon [2] |
| --- | --- | --- | --- | --- | --- | --- | --- | --- |
| AVFVWNYYIIRRYYCK (cyclo(Ac-Ala1 ... Cys15) as printed; N-terminal Ac; NMe-Tyr at position 14; PEG12 between Cys15 and the C-terminal Lys; NOTA on the Lys, holding ^68Ga) [^68Ga-NOTA-TR01] | 9.18 | 5.01 | 0.86 | 7.88 | 2.94 | – | – | – |
| AVFVWNYYIIRRYYCK (cyclo(Ac-Ala1 ... Cys15) as printed; N-terminal Ac; NMe-Tyr at position 14; PEG12 between Cys15 and the C-terminal Lys; NOTA on the Lys, the 15-residue macrocycle, printed in three-letter code; position 14 is N-methyl-Tyr; C-terminal Lys that carries NOTA; joined to Cys15 through a PEG12 spacer (no amino acids); a thioether from an N-terminal chloroacetyl group is only surmised; also called unlabeled TR01; unlabeled NOTA-TR01; source: synthetic peptide, custom synthesized by A+ Peptide (Shanghai, China), >95% purity) [NOTA-TR01 [cyclo(Ac-Ala-Val-Phe-Val-Trp-Asn-Tyr-Tyr-Ile-Ile-Arg-Arg-Tyr-NMe-Tyr-Cys)-PEG12-Lys-NOTA]] | – | – | – | – | – | 22.3 nM | 0.00173 s⁻¹ | 77300 M⁻¹ s⁻¹ |
